Data set [1] concerns the molecule itself. In words: capsid formation (homo-oligomer).
Data set [2] concerns the molecule itself. In words: TEM of the HA-immunoprecipitated VLP fraction from HEK293FT cells.
Excerpt: Successful isolation was confirmed by Coommassie staining and protein capsids were imaged using TEM as described previously.
Data set [3] deals with the molecule itself. In words: TEM of protein purified from E. coli.

B1: human paraneoplastic antigen Ma2 (PNMA2), recombinant, purified from E. coli (other)
chain: ALALLEDWCRIMSVDEQKSLMVTGIPADFEEAEIQEVLQETLKSLGRYRLLGKIFRKQENANAVLLELLEDTDVSAIPSEVQGKGGVWKVIFKTPNQDTEFLERLNLFLEKEGQTVSGMFRALGQEGVSPATVPCISPELLAHLLGQAMAHAPQPLLPMRYRKLRVFSGSAVPAPEEESFEVWLEQATEIVKEWPVTEAEKKRWLAESLRGPALDLMHIVQADNPSISVEECLEAFKQVFGSLESRRTAQVRYLKTYQEEGEKVSAYVLRLETLLRRAVEKRAIPRRIADQVRLEQVMAGATLNQMLWCRLRELKDQGPPPSFLELMKVIREEEEEEASFENESIEEPEERDGYGRWNHEGDD
notes: Written as the monomer; Only residues 158-340 were resolved by cryo-EM; also called PNMA2 monomer; wild-type PNMA2
For the protein B1, the binding result in data set [1] is recorded as “binds”.

B2: HA-tagged PNMA2 overexpressed in HEK293FT cells (other)
chain: ALALLEDWCRIMSVDEQKSLMVTGIPADFEEAEIQEVLQETLKSLGRYRLLGKIFRKQENANAVLLELLEDTDVSAIPSEVQGKGGVWKVIFKTPNQDTEFLERLNLFLEKEGQTVSGMFRALGQEGVSPATVPCISPELLAHLLGQAMAHAPQPLLPMRYRKLRVFSGSAVPAPEEESFEVWLEQATEIVKEWPVTEAEKKRWLAESLRGPALDLMHIVQADNPSISVEECLEAFKQVFGSLESRRTAQVRYLKTYQEEGEKVSAYVLRLETLLRRAVEKRAIPRRIADQVRLEQVMAGATLNQMLWCRLRELKDQGPPPSFLELMKVIREEEEEEASFENESIEEPEERDGYGRWNHEGDD
notes: also called HA-PNMA2; PNMA2-HA; not shown: HA tag at the N-terminus
Consider B2, for which the binding result in data set [2] is on record as “binds”.

B3: PNMA2(340)-CCMV(30), engineered PNMA2 (other)
chain: MALALLEDWCRIMSVDEQKSLMVTGIPADFEEAEIQEVLQETLKSLGRYRLLGKIFRKQENANAVLLELLEDTDVSAIPSEVQGKGGVWKVIFKTPNQDTEFLERLNLFLEKEGQTVSGMFRALGQEGVSPATVPCISPELLAHLLGQAMAHAPQPLLPMRYRKLRVFSGSAVPAPEEESFEVWLEQATEIVKEWPVTEAEKKRWLAESLRGPALDLMHIVQADNPSISVEECLEAFKQVFGSLESRRTAQVRYLKTYQEEGEKVSAYVLRLETLLRRAVEKRAIPRRIADQVRLEQVMAGATLNQMLWCRLRELKDQGPPPSFLELMKVIREEEEEEASMSTVGTGKLTRAQRRAAARKNKRNTRVVQP
notes: Written as the monomer; The disordered C-terminal region of PNMA2 is replaced by the N-terminal 30 residues of CCMV; It was purified from E. coli and forms capsids like wild-type PNMA2; also called ePNMA2; PNMA2(1-340)-CCMV
For B3, the binding result in data set [3] is listed as “binds”.
